The results in this text go back to patent publication US20210024615A1 (LIVERPOOL SCHOOL OF TROPICAL MEDICINE, published 2021).

Among the targets are human FcγRIIIA (human, UniProt P08637 17-208); C1q (UniProt P02745 23-245; P02746 28-253; P02747 29-245); Siglec-3 (UniProt P20138 18-259); MBL (UniProt P11226 21-248).
Holding throughout (assay): ELISA
In general terms: In an ELISA, binding on a coated surface is turned into a signal by an enzyme label.

For the next test, the target named is T1, human FcγRIIB (human, UniProt P31994 46-217).
T1 construct: also called CD32B
T1 sequence (looked up): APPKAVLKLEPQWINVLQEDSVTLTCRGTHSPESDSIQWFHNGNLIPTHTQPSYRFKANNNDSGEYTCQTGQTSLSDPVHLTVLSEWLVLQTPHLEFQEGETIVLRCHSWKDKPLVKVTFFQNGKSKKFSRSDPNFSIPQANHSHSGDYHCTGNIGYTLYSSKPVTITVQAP

The next test deals with T2, Siglec-2 (UniProt P20273 20-687).
T2 construct: also called CD22

Another test has as its target T3, dectin-1 (UniProt Q9BXN2-2 66-201).
T3 construct: also called dec-1
T3 sequence (looked up): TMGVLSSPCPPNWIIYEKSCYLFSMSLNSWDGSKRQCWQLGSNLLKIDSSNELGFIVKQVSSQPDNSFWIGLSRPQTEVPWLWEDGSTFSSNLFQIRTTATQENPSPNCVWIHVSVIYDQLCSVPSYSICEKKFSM

The next test concerns the target T4, clec-4a (UniProt Q9UMR7 70-237).
T4 construct: also called DCIR
T4 sequence (looked up): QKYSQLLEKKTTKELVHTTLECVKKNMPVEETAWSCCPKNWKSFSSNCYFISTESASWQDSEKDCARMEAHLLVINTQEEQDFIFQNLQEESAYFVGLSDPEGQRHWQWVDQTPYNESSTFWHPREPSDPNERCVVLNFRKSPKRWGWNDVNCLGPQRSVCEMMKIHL

For another test, the target named is T5, dectin-2 (UniProt Q6EIG7 46-209).
T5 construct: also called dec-2
T5 sequence (looked up): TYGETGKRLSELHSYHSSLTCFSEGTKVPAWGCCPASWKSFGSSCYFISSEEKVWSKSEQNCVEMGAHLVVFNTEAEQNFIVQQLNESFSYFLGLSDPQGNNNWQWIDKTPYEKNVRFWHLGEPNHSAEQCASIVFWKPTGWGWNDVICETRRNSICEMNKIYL

The target of another test is T6, clec-4d (UniProt Q8WXI8 39-215).
T6 sequence (looked up): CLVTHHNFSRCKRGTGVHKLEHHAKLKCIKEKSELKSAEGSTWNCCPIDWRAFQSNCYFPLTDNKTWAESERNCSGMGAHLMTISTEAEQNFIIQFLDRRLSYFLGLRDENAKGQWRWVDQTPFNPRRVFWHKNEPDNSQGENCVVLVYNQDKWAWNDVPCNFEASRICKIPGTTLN

For the next test, the target named is T7, tetrameric human DC-SIGN (human, UniProt Q9NNX6 66-404).
T7 sequence (looked up): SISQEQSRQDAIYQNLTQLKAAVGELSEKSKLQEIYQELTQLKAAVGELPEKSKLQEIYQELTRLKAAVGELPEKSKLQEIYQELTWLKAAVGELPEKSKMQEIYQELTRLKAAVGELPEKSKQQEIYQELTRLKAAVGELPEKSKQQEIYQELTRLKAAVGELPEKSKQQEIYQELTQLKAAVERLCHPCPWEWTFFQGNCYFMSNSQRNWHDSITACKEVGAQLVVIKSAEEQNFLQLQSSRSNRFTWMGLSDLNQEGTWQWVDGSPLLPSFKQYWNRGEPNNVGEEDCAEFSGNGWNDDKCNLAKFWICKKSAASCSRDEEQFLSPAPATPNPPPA

The target of the next test is T8, Siglec-4 (UniProt P20916 20-516).
T8 construct: also called MAG
T8 sequence (looked up): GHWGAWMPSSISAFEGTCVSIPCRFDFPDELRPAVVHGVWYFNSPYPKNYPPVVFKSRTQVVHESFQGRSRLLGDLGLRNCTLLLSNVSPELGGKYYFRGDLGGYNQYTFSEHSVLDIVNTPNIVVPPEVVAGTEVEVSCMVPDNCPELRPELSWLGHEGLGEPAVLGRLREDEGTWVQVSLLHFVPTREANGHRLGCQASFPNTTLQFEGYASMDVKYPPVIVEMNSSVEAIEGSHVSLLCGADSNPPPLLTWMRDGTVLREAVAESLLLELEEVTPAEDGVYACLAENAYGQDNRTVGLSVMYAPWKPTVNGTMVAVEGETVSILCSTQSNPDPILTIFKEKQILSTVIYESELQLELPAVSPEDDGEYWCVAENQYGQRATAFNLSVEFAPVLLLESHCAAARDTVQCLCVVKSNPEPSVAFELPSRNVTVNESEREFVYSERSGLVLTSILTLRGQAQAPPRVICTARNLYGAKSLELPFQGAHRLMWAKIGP

The target in a further test is T9, MMR (UniProt P22897 19-1383).
T9 sequence (looked up): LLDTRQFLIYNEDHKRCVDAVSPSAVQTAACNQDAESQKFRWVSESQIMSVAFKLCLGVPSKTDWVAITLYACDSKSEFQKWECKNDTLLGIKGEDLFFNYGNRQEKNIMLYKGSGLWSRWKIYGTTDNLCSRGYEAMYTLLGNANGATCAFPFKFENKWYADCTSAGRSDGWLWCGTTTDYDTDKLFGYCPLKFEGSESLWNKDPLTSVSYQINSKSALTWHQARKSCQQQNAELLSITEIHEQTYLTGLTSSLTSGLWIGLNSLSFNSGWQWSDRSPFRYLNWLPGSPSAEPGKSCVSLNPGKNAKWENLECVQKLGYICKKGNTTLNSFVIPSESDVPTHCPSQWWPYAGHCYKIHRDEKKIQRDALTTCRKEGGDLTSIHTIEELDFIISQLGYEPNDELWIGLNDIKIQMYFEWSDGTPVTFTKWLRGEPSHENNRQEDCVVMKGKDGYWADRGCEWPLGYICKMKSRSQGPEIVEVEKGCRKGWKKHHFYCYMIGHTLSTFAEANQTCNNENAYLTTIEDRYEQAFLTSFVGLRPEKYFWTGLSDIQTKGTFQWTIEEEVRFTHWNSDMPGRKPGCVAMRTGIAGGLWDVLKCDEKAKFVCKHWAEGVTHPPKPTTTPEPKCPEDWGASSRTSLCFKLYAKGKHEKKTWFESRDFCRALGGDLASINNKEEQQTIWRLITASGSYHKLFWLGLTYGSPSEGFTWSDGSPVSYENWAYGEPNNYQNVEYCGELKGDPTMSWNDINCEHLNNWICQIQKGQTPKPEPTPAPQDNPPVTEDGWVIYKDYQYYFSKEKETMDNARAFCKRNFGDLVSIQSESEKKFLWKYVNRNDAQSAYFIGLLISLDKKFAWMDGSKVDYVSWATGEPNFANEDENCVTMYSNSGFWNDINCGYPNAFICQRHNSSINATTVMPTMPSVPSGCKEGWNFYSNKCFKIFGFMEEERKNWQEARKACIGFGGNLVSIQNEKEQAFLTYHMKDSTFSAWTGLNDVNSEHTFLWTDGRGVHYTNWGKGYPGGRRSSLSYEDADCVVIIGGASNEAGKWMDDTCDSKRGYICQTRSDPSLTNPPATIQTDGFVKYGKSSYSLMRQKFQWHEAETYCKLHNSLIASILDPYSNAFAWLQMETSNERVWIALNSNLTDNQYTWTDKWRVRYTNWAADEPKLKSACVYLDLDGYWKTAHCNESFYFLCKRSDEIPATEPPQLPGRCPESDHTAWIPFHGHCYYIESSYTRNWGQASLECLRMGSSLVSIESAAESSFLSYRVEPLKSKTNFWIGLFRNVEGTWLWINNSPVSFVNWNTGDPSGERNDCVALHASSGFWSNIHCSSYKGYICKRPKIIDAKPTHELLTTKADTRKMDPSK

A further test deals with T10, CD23 (UniProt P06734 48-321).
T10 sequence (looked up): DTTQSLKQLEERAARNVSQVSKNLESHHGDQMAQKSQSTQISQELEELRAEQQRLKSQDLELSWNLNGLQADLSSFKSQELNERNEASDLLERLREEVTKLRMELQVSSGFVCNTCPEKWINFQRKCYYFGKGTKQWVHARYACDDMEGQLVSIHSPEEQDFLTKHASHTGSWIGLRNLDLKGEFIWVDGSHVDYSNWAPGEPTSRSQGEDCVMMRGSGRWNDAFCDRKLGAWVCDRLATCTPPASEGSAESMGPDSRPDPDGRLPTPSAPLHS

MBL, sequence (P11226 21-248 limits assumed): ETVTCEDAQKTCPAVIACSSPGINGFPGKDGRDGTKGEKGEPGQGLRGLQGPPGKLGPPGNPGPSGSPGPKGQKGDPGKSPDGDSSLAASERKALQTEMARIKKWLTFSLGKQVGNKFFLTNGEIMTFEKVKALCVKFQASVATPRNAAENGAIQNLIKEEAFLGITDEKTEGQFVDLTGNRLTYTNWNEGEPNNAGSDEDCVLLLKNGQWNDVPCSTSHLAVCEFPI
C1q, sequence (P02745 23-245, chain 1 of 3): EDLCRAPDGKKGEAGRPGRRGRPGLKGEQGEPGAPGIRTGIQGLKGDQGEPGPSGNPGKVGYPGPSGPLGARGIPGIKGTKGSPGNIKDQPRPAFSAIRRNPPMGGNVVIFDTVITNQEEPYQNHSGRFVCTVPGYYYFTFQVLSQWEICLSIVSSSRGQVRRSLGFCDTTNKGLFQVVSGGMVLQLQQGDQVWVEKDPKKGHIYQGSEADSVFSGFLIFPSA
C1q, sequence (P02746 28-253, chain 2 of 3): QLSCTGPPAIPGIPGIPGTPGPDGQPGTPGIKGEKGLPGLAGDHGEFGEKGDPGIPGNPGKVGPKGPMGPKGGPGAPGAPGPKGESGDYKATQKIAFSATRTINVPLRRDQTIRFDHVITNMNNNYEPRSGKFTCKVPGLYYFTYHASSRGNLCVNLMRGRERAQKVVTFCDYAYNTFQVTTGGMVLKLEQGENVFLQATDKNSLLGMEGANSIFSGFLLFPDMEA
C1q, sequence (P02747 29-245, chain 3 of 3): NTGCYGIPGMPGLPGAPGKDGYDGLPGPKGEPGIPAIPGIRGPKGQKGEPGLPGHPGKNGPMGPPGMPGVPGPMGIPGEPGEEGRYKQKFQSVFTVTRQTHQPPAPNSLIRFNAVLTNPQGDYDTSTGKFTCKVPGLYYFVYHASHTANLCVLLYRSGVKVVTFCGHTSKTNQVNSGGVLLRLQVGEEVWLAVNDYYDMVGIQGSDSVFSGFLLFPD
Siglec-3, sequence (P20138 18-259 limits assumed): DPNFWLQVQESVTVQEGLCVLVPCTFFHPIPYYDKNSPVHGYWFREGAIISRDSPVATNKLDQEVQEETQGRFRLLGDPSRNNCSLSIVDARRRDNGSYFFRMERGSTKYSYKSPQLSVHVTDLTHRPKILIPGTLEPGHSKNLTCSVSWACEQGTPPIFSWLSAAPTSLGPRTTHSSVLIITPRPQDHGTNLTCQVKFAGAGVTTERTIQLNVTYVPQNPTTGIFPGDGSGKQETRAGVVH
human FcγRIIIA, sequence (P08637 17-208 limits assumed): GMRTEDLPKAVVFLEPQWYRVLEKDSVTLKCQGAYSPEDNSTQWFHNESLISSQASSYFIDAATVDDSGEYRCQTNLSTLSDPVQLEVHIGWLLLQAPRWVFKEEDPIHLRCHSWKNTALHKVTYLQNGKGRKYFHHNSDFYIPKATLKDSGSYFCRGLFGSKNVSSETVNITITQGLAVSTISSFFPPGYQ

B1: [change]/[change] (other)
chain: DKTHTCPPCPAPELLGGPSVFLFPPKPKDTLMISRTPEVTCVVVDVSHEDPEVKFNWYVDGVEVHNAKTKPREEQYASTYRVVSVLTVCLQDWLNGKEYKCKVSNKALPAPIEKTISKAKGQPREPQVYTLPPSREEMTKNQVSLTCLVKGFYPSDIAVEWESNGQPENNYKTTPPVLDSDGSFFLYSKLTVDKSRWQQGNVFSCSVMHEALHNHYTQKSLSLSPGKLVLGPPLYNVSLVMSDTAGTAY
Take B1: the binding result with human FcγRIIIA, with human FcγRIIB, in the test with C1q, with Siglec-2, with Siglec-3 and with dectin-1 was “no binding” throughout. Further, the binding result with MBL, in the test with clec-4a, in the test with dectin-2, in the test with clec-4d, with tetrameric human DC-SIGN and with Siglec-4 was “no binding” each time. Besides, the binding result with MMR is given as “no binding”.

B2: [change]/[change] (other)
chain: NKTHTCPPCPAPELLGGPSVFLFPPKPKDTLMISRTPEVTCVVVDVSHEDPEVKFNWYVDGVEVHNAKTKPREEQYNSTYRVVSVLTVCLQDWLNGKEYKCKVSNKALPAPIEKTISKAKGQPREPQVYTLPPSREEMTKNQVSLTCLVKGFYPSDIAVEWESNGQPENNYKTTPPVLDSDGSFFLYSKLTVDKSRWQQGNVFSCSVMHEALHNHYTQKSLSLSPGKLVLGPPLYNVSLVMSDTAGTAY
For the molecule B2, the binding result with human FcγRIIIA, in the test with C1q, in the test with Siglec-3, with dectin-1, with MBL and with clec-4a was “no binding” each time. Moreover, the binding result with dectin-2, with clec-4d, with tetrameric human DC-SIGN and with MMR was “no binding” in each case.

B3: [change]/[change]/[change] (other)
chain: NKTHTCPPCPAPELLGGPSVFLFPPKPKDTLMISRTPEVTCVVVDVSHEDPEVKFNWYVDGVEVHNAKTKPREEQYASTYRVVSVLTVCLQDWLNGKEYKCKVSNKALPAPIEKTISKAKGQPREPQVYTLPPSREEMTKNQVSLTCLVKGFYPSDIAVEWESNGQPENNYKTTPPVLDSDGSFFLYSKLTVDKSRWQQGNVFSCSVMHEALHNHYTQKSLSLSPGKLVLGPPLYNVSLVMSDTAGTAY
Consider B3, for which the binding result with human FcγRIIIA, with human FcγRIIB, with C1q, in the test with Siglec-2, in the test with Siglec-3 and in the test with dectin-1 was “no binding” each time. For the same molecule, the binding result with MBL, with clec-4a, in the test with dectin-2, in the test with clec-4d, in the test with tetrameric human DC-SIGN and with Siglec-4 was “no binding” throughout. For the same molecule, the binding result with MMR is on record as “no binding”.

B4: [change]/[change]/[change] (other)
chain: DKTHTCPPCPAPELLGGPSVFLFPPKPKDTLMISRTPEVTCVVVDVSHEDPEVKFNWYVDGVEVHNAKTKPREEQYASTYRVVSVLTVCLQDWLNGKEYKCKVSNKALPAPIEKTISKAKGQPREPQVYTLPPSREEMTKNQVSLTCLVKGFYPSDIAVEWESNGQPENNYKTTPPVLDSDGSFFLYSKLTVDKSRWQQGNVFSCSVMHEALHNHYTQKSLSLSPGKLVLGPPLYAVSLVMSDTAGTAY
As for B4, the binding result is given as “no binding” with human FcγRIIIA; “binds” in the test with human FcγRIIB; “no binding” with Siglec-3; “no binding” with clec-4a; “no binding” with CD23; “no binding” in the test with clec-4d. Besides, the binding result in the test with tetrameric human DC-SIGN is “binds”.
